Test results from paper PMC10076317, “Extended DNA threading through a dual-engine motor module of the activating signal co-integrator 1 complex” (Nature Communications, 2023).

Legend:
[1] = molecular target: T1, ASCC3 helicase region (ASCC3^HR, residues 401-2202) (human, UniProt Q8N3C0 401-2202); experiment: cell-based or functional assay
[2] = molecular target: T1, ASCC3 helicase region (ASCC3^HR, …); experiment: SEC; analytical SEC, Superdex 200 3.2/300; 20 mM HEPES-NaOH pH 7.5, 250 mM NaCl, 5% glycerol, 1 mM DTT; 100 pmol ASCC3^HR mixed with other proteins in two to tenfold molar excess in 80 µl, 30 min on ice; fractions by SDS-PAGE; settings: both partners purified
[3] = molecular target: T1, ASCC3 helicase region (ASCC3^HR, …); experiment: SEC; analytical SEC for competitive binding, Superdex 200 3.2/300; 120 pmol ASCC3^HR with 360 pmol TRIP4 and/or ALKBH3 in 100 µl, 30 min on ice; fractions by SDS-PAGE, Coomassie; settings: both partners purified
ASCC3HR = ASCC3HR (human, UniProt Q8N3C0 401-2202); experiment: MST; no ATP; Hill fit EC50; MST: 20 mM HEPES-NaOH pH 7.5, 300 mM NaCl, 5% glycerol, 1 mM DTT, room temperature, 50 nM final Cy5-T48; UV cross-linking: 50 mM HEPES-NaOH pH 7.5, 80 mM NaCl; settings: protein: recombinant; tags: N-terminal His10, TEV-cleaved; label: 5'-Cy5; single strand
TRIP4 = molecular target: T2, TRIP4 (UniProt Q15650 1-581); experiment: as above; settings: protein: recombinant; tags: N-terminal His6, TEV-cleaved; label: 5'-Cy5; single strand
T2 sequence: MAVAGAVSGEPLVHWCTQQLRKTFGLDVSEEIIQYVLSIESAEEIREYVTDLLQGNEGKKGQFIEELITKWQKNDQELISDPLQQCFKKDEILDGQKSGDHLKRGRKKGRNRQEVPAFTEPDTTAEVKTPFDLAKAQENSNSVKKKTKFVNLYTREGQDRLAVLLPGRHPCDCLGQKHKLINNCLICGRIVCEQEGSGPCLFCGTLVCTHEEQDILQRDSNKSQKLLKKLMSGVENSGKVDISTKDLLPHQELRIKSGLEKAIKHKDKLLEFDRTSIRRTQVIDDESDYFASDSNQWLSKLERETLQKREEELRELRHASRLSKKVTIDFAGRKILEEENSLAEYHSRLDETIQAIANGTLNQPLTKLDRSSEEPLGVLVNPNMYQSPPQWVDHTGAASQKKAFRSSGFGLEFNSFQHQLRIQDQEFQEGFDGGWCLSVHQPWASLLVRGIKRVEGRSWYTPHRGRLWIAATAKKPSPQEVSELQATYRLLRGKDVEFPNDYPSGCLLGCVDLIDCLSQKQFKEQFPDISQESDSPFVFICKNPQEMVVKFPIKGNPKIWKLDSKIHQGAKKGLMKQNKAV

ASCC3HR;TRIP4 = ASCC3HR;TRIP4 (human;human?, UniProt Q8N3C0;Q15650 401-2202;1-581, |); experiment: as above; settings: protein: recombinant;recombinant; tags: N-terminal His10, TEV-cleaved;N-terminal His6, TEV-cleaved; copies: 1;1; label: 5'-Cy5; single strand
ASCC3HR;TRIP4 1-230 = ASCC3HR;TRIP4 1-230 (human;human?, UniProt Q8N3C0;Q15650 401-2202;1-230, |); experiment: as above; settings: protein: recombinant;recombinant; tags: N-terminal His10, TEV-cleaved;N-terminal His6, TEV-cleaved; copies: 1;1; label: 5'-Cy5; single strand
Sequence of ASCC3HR;TRIP4 1-230 (Q8N3C0 401-2202, one chain of several): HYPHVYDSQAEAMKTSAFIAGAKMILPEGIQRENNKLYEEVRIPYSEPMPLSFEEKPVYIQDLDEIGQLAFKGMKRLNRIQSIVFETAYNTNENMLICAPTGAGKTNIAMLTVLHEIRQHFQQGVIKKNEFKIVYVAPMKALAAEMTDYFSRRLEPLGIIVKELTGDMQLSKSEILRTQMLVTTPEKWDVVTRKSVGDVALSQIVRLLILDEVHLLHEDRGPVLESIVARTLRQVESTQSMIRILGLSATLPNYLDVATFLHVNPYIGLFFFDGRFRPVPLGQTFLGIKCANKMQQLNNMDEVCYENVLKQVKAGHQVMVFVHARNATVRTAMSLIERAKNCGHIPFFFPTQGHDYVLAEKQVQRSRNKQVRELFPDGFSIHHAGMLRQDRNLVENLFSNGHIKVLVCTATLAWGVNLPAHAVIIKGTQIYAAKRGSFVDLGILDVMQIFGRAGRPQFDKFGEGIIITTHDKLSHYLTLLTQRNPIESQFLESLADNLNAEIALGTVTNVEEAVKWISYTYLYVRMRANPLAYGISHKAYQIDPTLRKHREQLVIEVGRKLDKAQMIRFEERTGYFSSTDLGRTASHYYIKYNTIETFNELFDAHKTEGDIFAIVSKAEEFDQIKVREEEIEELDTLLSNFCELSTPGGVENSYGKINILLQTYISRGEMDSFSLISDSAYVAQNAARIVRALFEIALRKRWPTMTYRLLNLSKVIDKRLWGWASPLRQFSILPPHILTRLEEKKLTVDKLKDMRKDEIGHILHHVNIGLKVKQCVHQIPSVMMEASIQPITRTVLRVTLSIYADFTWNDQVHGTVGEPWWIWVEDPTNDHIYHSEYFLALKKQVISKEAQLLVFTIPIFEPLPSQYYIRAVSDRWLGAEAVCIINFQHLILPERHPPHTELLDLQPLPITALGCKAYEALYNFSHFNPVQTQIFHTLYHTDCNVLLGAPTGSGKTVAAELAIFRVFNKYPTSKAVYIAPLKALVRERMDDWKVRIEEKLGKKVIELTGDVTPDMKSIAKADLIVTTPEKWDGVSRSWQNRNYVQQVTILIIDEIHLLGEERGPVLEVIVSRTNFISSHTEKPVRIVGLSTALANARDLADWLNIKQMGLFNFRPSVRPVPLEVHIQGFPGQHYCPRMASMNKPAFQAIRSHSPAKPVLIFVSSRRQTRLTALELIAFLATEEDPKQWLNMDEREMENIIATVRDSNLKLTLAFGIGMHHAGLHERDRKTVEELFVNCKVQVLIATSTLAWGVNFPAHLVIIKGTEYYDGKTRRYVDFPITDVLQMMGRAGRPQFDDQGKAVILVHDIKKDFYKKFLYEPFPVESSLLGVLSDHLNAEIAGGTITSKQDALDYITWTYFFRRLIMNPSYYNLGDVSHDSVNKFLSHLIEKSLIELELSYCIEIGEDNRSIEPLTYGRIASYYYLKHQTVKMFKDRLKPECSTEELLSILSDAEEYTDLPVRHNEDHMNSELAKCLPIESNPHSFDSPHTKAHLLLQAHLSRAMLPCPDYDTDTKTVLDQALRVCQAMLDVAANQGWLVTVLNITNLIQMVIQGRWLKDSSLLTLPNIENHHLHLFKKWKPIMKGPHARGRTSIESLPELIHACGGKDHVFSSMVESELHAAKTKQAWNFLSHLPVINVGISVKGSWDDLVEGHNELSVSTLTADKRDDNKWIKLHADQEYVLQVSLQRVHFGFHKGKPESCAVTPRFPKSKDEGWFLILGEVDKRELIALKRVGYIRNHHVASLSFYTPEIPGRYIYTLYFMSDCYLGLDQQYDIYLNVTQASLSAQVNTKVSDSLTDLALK

T1 sequence (Q8N3C0 401-2202): as the sequence (Q8N3C0 401-2202, one chain of several) above
Sequence of ASCC3HR;TRIP4 (Q8N3C0 401-2202, one chain of several): as above
Sequence of ASCC3HR (Q8N3C0 401-2202): as the sequence (Q8N3C0 401-2202, one chain of several) above

B1: TRIP4, full length, co-produced with ASCC3^HR in insect cells (natural protein, human, UniProt Q15650 1-581, looked up)
chain: MAVAGAVSGEPLVHWCTQQLRKTFGLDVSEEIIQYVLSIESAEEIREYVTDLLQGNEGKKGQFIEELITKWQKNDQELISDPLQQCFKKDEILDGQKSGDHLKRGRKKGRNRQEVPAFTEPDTTAEVKTPFDLAKAQENSNSVKKKTKFVNLYTREGQDRLAVLLPGRHPCDCLGQKHKLINNCLICGRIVCEQEGSGPCLFCGTLVCTHEEQDILQRDSNKSQKLLKKLMSGVENSGKVDISTKDLLPHQELRIKSGLEKAIKHKDKLLEFDRTSIRRTQVIDDESDYFASDSNQWLSKLERETLQKREEELRELRHASRLSKKVTIDFAGRKILEEENSLAEYHSRLDETIQAIANGTLNQPLTKLDRSSEEPLGVLVNPNMYQSPPQWVDHTGAASQKKAFRSSGFGLEFNSFQHQLRIQDQEFQEGFDGGWCLSVHQPWASLLVRGIKRVEGRSWYTPHRGRLWIAATAKKPSPQEVSELQATYRLLRGKDVEFPNDYPSGCLLGCVDLIDCLSQKQFKEQFPDISQESDSPFVFICKNPQEMVVKFPIKGNPKIWKLDSKIHQGAKKGLMKQNKAV
Q: Which “amplitude-weighted DNA unwinding rate constant (kuaw) of ASCC3^HR with TRIP4, stopped-flow fluorescence, no trap (ASCC3^HR alone 0.024 s^-1; stimulated 2.3-fold)” value [1] does the source give for B1 here?
A: 0.054 s⁻¹

B2: TRIP4^152-230 (domain or fragment, human, UniProt Q15650 152-230, looked up)
chain: LYTREGQDRLAVLLPGRHPCDCLGQKHKLINNCLICGRIVCEQEGSGPCLFCGTLVCTHEEQDILQRDSNKSQKLLKKL
notes: TRIP4, human, residues 152-230 (ZnF domain); also called ZnF domain alone; source: E. coli BL21 (DE3), purified (Ni-NTA, TEV, SEC); not shown: His6, N-terminal, cleaved
Q: Does B2 bind [2]?
A: binds

B3: ALKBH3 (alpha-ketoglutarate/iron-dependent dioxygenase, DNA/RNA dealkylase), full length (enzyme, human, UniProt Q96Q83 1-286, looked up)
chain: MEEKRRRARVQGAWAAPVKSQAIAQPATTAKSHLHQKPGQTWKNKEHHLSDREFVFKEPQQVVRRAPEPRVIDREGVYEISLSPTGVSRVCLYPGFVDVKEADWILEQLCQDVPWKQRTGIREDITYQQPRLTAWYGELPYTYSRITMEPNPHWHPVLRTLKNRIEENTGHTFNSLLCNLYRNEKDSVDWHSDDEPSLGRCPIIASLSFGATRTFEMRKKPPPEENGDYTYVERVKIPLDHGTLLIMEGATQADWQHRVPKEYHSREPRVNLTFRTVYPDPRGAPW
notes: ALKBH3, human, full length, amplified from a cDNA library of human HeLa cells, pETM-11; source: E. coli C2566, purified (Ni-NTA, TEV, heparin, SEC); not shown: His6, N-terminal, cleaved
Q: Does B3 bind [3]?
A: binds

Q: With TTTTTTTTTTTTTTTTTTTTTTTTTTTTTTTTTTTTTTTTTTTTTTTT (ssDNA) [T48 (Cy5)] as the binder, how does the “apparent K (half saturation)” value (ASCC3HR) read?
A: 551 ± 194 nM

Q: And the “apparent K (half saturation)” value (TRIP4)?
A: 903 ± 24 nM

Q: And the “apparent K (half saturation)” value (ASCC3HR;TRIP4)?
A: 53 ± 3 nM

Q: What about the “apparent K (half saturation)” value (ASCC3HR;TRIP4 1-230) of the same binder?
A: 468 ± 63 nM

B4: TRIP4^152-581 (domain or fragment, human, UniProt Q15650 152-581, looked up)
chain: LYTREGQDRLAVLLPGRHPCDCLGQKHKLINNCLICGRIVCEQEGSGPCLFCGTLVCTHEEQDILQRDSNKSQKLLKKLMSGVENSGKVDISTKDLLPHQELRIKSGLEKAIKHKDKLLEFDRTSIRRTQVIDDESDYFASDSNQWLSKLERETLQKREEELRELRHASRLSKKVTIDFAGRKILEEENSLAEYHSRLDETIQAIANGTLNQPLTKLDRSSEEPLGVLVNPNMYQSPPQWVDHTGAASQKKAFRSSGFGLEFNSFQHQLRIQDQEFQEGFDGGWCLSVHQPWASLLVRGIKRVEGRSWYTPHRGRLWIAATAKKPSPQEVSELQATYRLLRGKDVEFPNDYPSGCLLGCVDLIDCLSQKQFKEQFPDISQESDSPFVFICKNPQEMVVKFPIKGNPKIWKLDSKIHQGAKKGLMKQNKAV
notes: source: E. coli BL21 (DE3), purified (Ni-NTA, TEV, heparin, SEC); not shown: His6, N-terminal, cleaved
Q: Does B4 bind [2]?
A: binds
